T1: H14-ZZ-bdSUMO-tagged Pdr6 (S. cerevisiae, UniProt P32767 2-1081)
T1 construct: Pdr6/Kap122, S. cerevisiae; also called tagged NTR; source: E. coli Top10 F', purified (Ni(II) chelate, imidazole elution); not shown: His14, N-terminal, kept; ZZ, N-terminal, kept; bdSUMO, N-terminal, kept
T1 sequence: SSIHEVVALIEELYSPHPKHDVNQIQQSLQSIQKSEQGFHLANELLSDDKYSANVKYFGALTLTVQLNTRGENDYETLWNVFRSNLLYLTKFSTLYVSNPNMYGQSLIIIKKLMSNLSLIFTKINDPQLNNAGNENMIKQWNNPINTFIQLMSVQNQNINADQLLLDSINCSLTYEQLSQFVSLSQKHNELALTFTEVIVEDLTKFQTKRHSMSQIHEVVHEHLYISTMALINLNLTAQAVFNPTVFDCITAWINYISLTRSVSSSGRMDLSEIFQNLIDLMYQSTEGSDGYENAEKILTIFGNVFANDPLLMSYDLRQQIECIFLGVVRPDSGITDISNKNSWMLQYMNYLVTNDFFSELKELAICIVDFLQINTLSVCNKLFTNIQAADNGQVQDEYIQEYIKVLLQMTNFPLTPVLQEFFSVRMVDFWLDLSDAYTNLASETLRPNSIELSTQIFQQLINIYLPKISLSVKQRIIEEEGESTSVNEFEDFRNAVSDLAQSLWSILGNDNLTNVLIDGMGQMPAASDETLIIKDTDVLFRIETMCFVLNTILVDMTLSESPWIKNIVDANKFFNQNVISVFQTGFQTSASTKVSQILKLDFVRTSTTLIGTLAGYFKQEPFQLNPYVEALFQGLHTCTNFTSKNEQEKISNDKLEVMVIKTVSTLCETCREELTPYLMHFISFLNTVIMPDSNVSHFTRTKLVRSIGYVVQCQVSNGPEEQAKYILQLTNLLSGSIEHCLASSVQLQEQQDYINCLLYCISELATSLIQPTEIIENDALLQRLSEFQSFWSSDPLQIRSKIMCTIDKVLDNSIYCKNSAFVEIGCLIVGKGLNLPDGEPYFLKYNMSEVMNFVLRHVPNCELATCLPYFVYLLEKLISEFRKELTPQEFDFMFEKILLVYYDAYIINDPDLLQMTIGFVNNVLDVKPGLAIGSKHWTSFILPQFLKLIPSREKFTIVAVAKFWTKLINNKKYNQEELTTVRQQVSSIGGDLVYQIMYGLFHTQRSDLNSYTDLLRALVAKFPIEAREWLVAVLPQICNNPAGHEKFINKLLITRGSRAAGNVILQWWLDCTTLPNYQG

B1: Pdr6/Kap122 (S. cerevisiae), full length, tag removed (natural protein)
chain: MSSIHEVVALIEELYSPHPKHDVNQIQQSLQSIQKSEQGFHLANELLSDDKYSANVKYFGALTLTVQLNTRGENDYETLWNVFRSNLLYLTKFSTLYVSNPNMYGQSLIIIKKLMSNLSLIFTKINDPQLNNAGNENMIKQWNNPINTFIQLMSVQNQNINADQLLLDSINCSLTYEQLSQFVSLSQKHNELALTFTEVIVEDLTKFQTKRHSMSQIHEVVHEHLYISTMALINLNLTAQAVFNPTVFDCITAWINYISLTRSVSSSGRMDLSEIFQNLIDLMYQSTEGSDGYENAEKILTIFGNVFANDPLLMSYDLRQQIECIFLGVVRPDSGITDISNKNSWMLQYMNYLVTNDFFSELKELAICIVDFLQINTLSVCNKLFTNIQAADNGQVQDEYIQEYIKVLLQMTNFPLTPVLQEFFSVRMVDFWLDLSDAYTNLASETLRPNSIELSTQIFQQLINIYLPKISLSVKQRIIEEEGESTSVNEFEDFRNAVSDLAQSLWSILGNDNLTNVLIDGMGQMPAASDETLIIKDTDVLFRIETMCFVLNTILVDMTLSESPWIKNIVDANKFFNQNVISVFQTGFQTSASTKVSQILKLDFVRTSTTLIGTLAGYFKQEPFQLNPYVEALFQGLHTCTNFTSKNEQEKISNDKLEVMVIKTVSTLCETCREELTPYLMHFISFLNTVIMPDSNVSHFTRTKLVRSIGYVVQCQVSNGPEEQAKYILQLTNLLSGSIEHCLASSVQLQEQQDYINCLLYCISELATSLIQPTEIIENDALLQRLSEFQSFWSSDPLQIRSKIMCTIDKVLDNSIYCKNSAFVEIGCLIVGKGLNLPDGEPYFLKYNMSEVMNFVLRHVPNCELATCLPYFVYLLEKLISEFRKELTPQEFDFMFEKILLVYYDAYIINDPDLLQMTIGFVNNVLDVKPGLAIGSKHWTSFILPQFLKLIPSREKFTIVAVAKFWTKLINNKKYNQEELTTVRQQVSSIGGDLVYQIMYGLFHTQRSDLNSYTDLLRALVAKFPIEAREWLVAVLPQICNNPAGHEKFINKLLITRGSRAAGNVILQWWLDCTTLPNYQG
B2: S. cerevisiae Ubc9, full length (enzyme, UniProt P50623 1-157, looked up)
chain: MSSLCLQRLQEERKKWRKDHPFGFYAKPVKKADGSMDLQKWEAGIPGKEGTNWAGGVYPITVEYPNEYPSKPPKVKFPAGFYHPNVYPSGTICLSILNEDQDWRPAITLKQIVLGVQDLLDSPNPNSPAQEPAWRSFSRNKAEYDKKVLLQAKQYSK
notes: Ubc9, SUMO-conjugating E2 enzyme, S. cerevisiae, full length; residues 2-157 are in the model; Full length is said for the crystallised protein; also called yeast Ubc9; source: NEB Express cells, purified (Ni(II) chelate)

What was measured:
Settings in all cases: both partners purified
[1] = target: human RanQ69L (residues 5-180), GTP-bound (human, UniProt P62826 5-180, Q69L); assay: crystal structure; Pdr6•RanGTP, hexagonal crystals, 18°C, 50 mM sodium acetate pH 5.5, 220 mM MgCl2, 19% pentaerythritol propoxylate, 10% 2-Methyl-2,4-pentanediol
[2] = target: B1; assay: crystal structure; Pdr6•Ubc9, 18°C, 50 mM sodium cacodylate pH 5.7, 20 mM MgCl2, 3-5% ethanol
[3] = target: T1, H14-ZZ-bdSUMO-tagged Pdr6; assay: pull-down; 1 µM H14-ZZ-bdSUMO-tagged NTR with 2 µM human or yeast Ubc9; retrieved via the tagged NTR by anti-Protein A beads, eluted by bdSENP1 protease, SDS-PAGE and Coomassie

Row | Binder | binding result [1] | binding result [2] | binding result [3]
1 | B1 | binds | – | –
2 | B2 | – | binds | binds
